According to patent US20250179160A1:

Legend:
[1] = target: recombinant human Pro-Factor D (human) (UniProt P00746); assay: ELISA: antibody titrated 3-fold from 3 ug/ml on plate coated with 1 ug/ml recombinant human pro-Factor D; HRP anti-mouse, rat or human secondary; OD450
[2] = target: recombinant human mature Factor D (human) (UniProt P00746); assay: ELISA: antibody titrated 3-fold from 3 ug/ml on plate coated with 1 ug/ml recombinant human mature Factor D; HRP anti-mouse, rat or human secondary; OD450

MAB18241 (antibody)
EC50 (read off the curve) [1]: 0.02 µg/mL
EC50 (read off the curve) [2]: 0.04 µg/mL
